These results are taken from article PMC9405506, “Thermostable and O2-Insensitive Pyruvate Decarboxylases from Thermoacidophilic Archaea Catalyzing the Production of Acetaldehyde” (Biology, 2022).

Substrate in data set [1]: CC(=O)C(=O)O
Description: PDC activity: acetaldehyde by DNPH derivatization and HPLC, Michaelis-Menten fit. It is filed as biochemical, Saccharolobus solfataricus. The following applies: PDC (non-oxidative decarboxylation) reaction, 0.1 mM CoA, 100 mM sodium phosphate pH 7.9, 80 °C. From the text: PDC activity: acetaldehyde by DNPH derivatization and HPLC, Michaelis-Menten fit on SsPOR/PDC

Substrate in the data set “purified protein”: CC(=O)C(=O)O
Description: purified protein. It is filed as biochemical, Saccharolobus solfataricus. The following applies: POR (oxidative decarboxylation) reaction, 0.1 mM CoA, 1 mM benzyl viologen, 50 µM sodium dithionite, anaerobic, pH 8.0, 80 °C.

B1: SsPOR/PDC (Saccharolobus solfataricus) (protein)
chain 1: MRISWMIGGAQGSGVDTSANIFGNAVAASGYYIYGNREYYSNIKGRHSYFNLTISDKPPRSIAQQIEILTSFDAETIFQHFNEVKDVLIYSTEVENTKAEQVQSMEPEITEHVVKFLKEKGYGTTVKDVINYLKKEKGVKVIPIDYMEILKKVADQAKVQLSVADRARNTIAIAASYKLLGLKEQYLINSITRTFRQEVFAKINTIAAQLAMQQIQPMYNLPELPNNEEKINLDGNTAAAIGKIYGGLRFQSYYPITPASDESVFIEAHQTVFTVDPKTGEKRKSTIVVVQAEDELAAINMASGAALTGVRAATATSGPGFSLMVEGMGWAGMNEVPVVITYYIRGGPSTGQPTRTSQADLMFALNAGHGEFPRIVIASGDHVEAFHDGTWALNLAQKYQTPVIHLVDKALANSYSIIPKKTLGMENIRIEKGKIVINTNTPELKRFEITEDGISPFAPLGTARVHYTGDEHDEYGFIAEASENREKMYEKRIKKLMTADKEIPEESRVNVYGNTDSKVAIITWGSPKGAILDAMEELENEGIKPMLIQIRMFSPFPKNLMRKLLNGKEFIIDVESNYFGQAGEVLKLNTGIEPTHYILKWNGRPMMRDEVKEGIKAVVQKGERRVVLHGGA
chain 2: MAGLKVEWNDWCPGCGNFGILSAEQQAIQELGLDPKKVVLVSGIGCSGKIPHFIRLPASGVHTLHGRALTFAIGIKLANPSLEVIVNGGDGDQLGIGVGHFVSAGRRNVDLTVIVHNNGVYGLTKGQASPTLKLGVKTKSLPKPNINSDINPIALAISSGYTFVARGYAYDVKHLKEIIKKAIKHKGLAMIDVLQPCPTYNDIHTKEYYDKRVYKLDEDPSWDPIVKKPEEMDDKMSKAILKSMEWGDRTPIGIFYQNELVSTYEQRIAERSPSYLDNPPAHDVIEFEGKPTTDVEDILKERRVT
notes: native, purified from cells by DEAE-Sepharose, hydroxyapatite and phenyl-Sepharose; heterodimer (alpha-beta), subunits 37 and about 65 kDa
By Km is commonly meant the substrate concentration at which the rate is half of its maximum. A word on the Vmax: it is the rate approached at saturating substrate. For B1, the Km in data set [1] is 1100 ± 200 µM; in “purified protein”, 500 ± 100 µM. For the same protein, the Vmax in data set [1] stood at 0.12 µmol/min/mg; in “purified protein”, 6.3 µmol/min/mg.
